The values that follow come from the Immune Epitope Database (IEDB).

Where only a bound is given, the exact number is not on record here.

The target in assay [1] is HLA-B*53:01. As to the kind of experiment: IEDB peptide-MHC binding, purified MHC/competitive/radioactivity; filed as Kd, often an IC50 or EC50 that approximates it; ≥ and ≤ were set here for values at or beyond the usual limits of such assays.
Assay [2] has as its target HLA-B*51:01. Described as above.
For assay [3], the target named is HLA-B*07:02. Briefly: IEDB peptide-MHC binding, purified MHC/competitive/radioactivity; ≥ and ≤ were set here for values at or beyond the usual limits of such assays.
Assay [4] deals with HLA-B*54:01. The assay is described as above.
For assay [5], the target named is HLA-B*35:01. Described as above.
For assay [6], the target named is HLA-B*35:01. Briefly: IEDB peptide-MHC binding, purified MHC/competitive/radioactivity; filed as Kd, often an IC50 or EC50 that approximates it; ≥ and ≤ were set here for values at or beyond the usual limits of such assays.
For assay [7], the target named is HLA-B*53:01. Briefly: IEDB peptide-MHC binding, purified MHC/competitive/radioactivity; ≥ and ≤ were set here for values at or beyond the usual limits of such assays.
Assay [8] addresses HLA-B*51:01. Described as above.
Assay [9] addresses HLA-B*54:01. As to the kind of experiment: IEDB peptide-MHC binding, purified MHC/competitive/radioactivity; filed as Kd, often an IC50 or EC50 that approximates it; ≥ and ≤ were set here for values at or beyond the usual limits of such assays.
Assay [10] concerns the target HLA-B*07:02. The assay is described as above.
The mark [11] stands for this setting: source organism: Human immunodeficiency virus 1.
Where [12] appears, read: source organism: Human papillomavirus type 6b.
Setting [13] is: source organism: Hepatitis C virus (isolate Taiwan).
Where [14] appears, read: source organism: Human T-cell leukemia virus type I.
[15] abbreviates: source organism: Human T-cell lymphotrophic virus type 1 (Caribbean isolate).

As a reminder, the Kd is the concentration at which binding is half-saturated. Usually IC50 stands for the point on the concentration scale where inhibition reaches its midpoint. For the sequence FPVRPQVPQ, the Kd with HLA-B*53:01 [1] (setting [11]) and with HLA-B*51:01 [2] (setting [11]) was 1300 nM throughout. Besides, the values for the IC50 with HLA-B*07:02 [3] (setting [11]), with HLA-B*54:01 [4] (setting [11]) and in the assay with HLA-B*35:01 [5] (setting [11]) were 380 nM, 79 nM and 394 nM, respectively.

MPNQAQMRI: the Kd in the assay with HLA-B*35:01 [6] (source organism: Homo sapiens) came to 1040 nM. Besides, the IC50 with HLA-B*53:01 [7] (source organism: Homo sapiens) is 20 nM; with HLA-B*07:02 [3] (source organism: Homo sapiens) it was 600 nM; with HLA-B*51:01 [8] (source organism: Homo sapiens), 14 nM; with HLA-B*54:01 [4] (source organism: Homo sapiens) it was 424 nM.

Regarding EPGPVTAQV, the Kd with HLA-B*53:01 [1] (source organism: Homo sapiens) and in the assay with HLA-B*35:01 [6] (source organism: Homo sapiens) was not below 25000 nM in each case. For the same sequence, the IC50 worked out at 902 nM with HLA-B*07:02 [3] (source organism: Homo sapiens), 28 nM in the assay with HLA-B*51:01 [8] (source organism: Homo sapiens) and 476 nM with HLA-B*54:01 [4] (source organism: Homo sapiens).

For the sequence SPSCPLERF, the results for the equilibrium dissociation constant (Kd) in the assay with HLA-B*53:01 [1] (source organism: Homo sapiens), with HLA-B*51:01 [2] (source organism: Homo sapiens) and in the assay with HLA-B*54:01 [9] (source organism: Homo sapiens) were 3440 nM, 1900 nM and not below 25000 nM, respectively. Besides, the results for the IC50 with HLA-B*07:02 [3] (source organism: Homo sapiens) and with HLA-B*35:01 [5] (source organism: Homo sapiens) were 833 nM and 379 nM, respectively.

Consider VPLAHSSSA, for which the Kd with HLA-B*53:01 [1] (source organism: Homo sapiens) and with HLA-B*35:01 [6] (source organism: Homo sapiens) was not below 25000 nM throughout. The IC50 with HLA-B*07:02 [3] (source organism: Homo sapiens) turned out to be 172 nM; with HLA-B*51:01 [8] (source organism: Homo sapiens) it was 367 nM; with HLA-B*54:01 [4] (source organism: Homo sapiens), 23 nM.

Take FPVRPQVPM: in the assay with HLA-B*51:01 [2] (setting [11]), the Kd amounted to 1300 nM. For the same sequence, the IC50 with HLA-B*53:01 [7] (setting [11]) turned out to be 32.5 nM; with HLA-B*07:02 [3] (setting [11]), 3.8 nM; in the assay with HLA-B*54:01 [4] (setting [11]), 79 nM; in the assay with HLA-B*35:01 [5] (setting [11]), 13 nM.

For the sequence FPVRPQVPL, the figures for the IC50 with HLA-B*53:01 [7] (setting [11]) and with HLA-B*51:01 [8] (setting [11]) were 192 nM and 679 nM, respectively.

Consider LPSIPVHPI, for which, in the assay with HLA-B*35:01 [6] (source organism: Homo sapiens), the Kd turned out to be 2940 nM. Moreover, the IC50 with HLA-B*53:01 [7] (source organism: Homo sapiens) is 465 nM; with HLA-B*07:02 [3] (source organism: Homo sapiens) it was 68 nM; in the assay with HLA-B*51:01 [8] (source organism: Homo sapiens), 32 nM; with HLA-B*54:01 [4] (source organism: Homo sapiens), 38 nM.

Turning to IPFLTKFKL, the Kd was determined as 2390 nM with HLA-B*07:02 [10] (setting [12]) and 9000 nM with HLA-B*35:01 [6] (setting [12]). Further, the results for the IC50 with HLA-B*53:01 [7] (setting [12]), in the assay with HLA-B*51:01 [8] (setting [12]) and with HLA-B*54:01 [4] (setting [12]) were 581 nM, 31 nM and 833 nM, respectively.

In the case of FPYLVAYQA, the Kd amounted to 1710 nM in the assay with HLA-B*53:01 [1] (setting [13]) and 18000 nM with HLA-B*07:02 [10] (setting [13]). The half-maximal inhibitory concentration (IC50) with HLA-B*51:01 [8] (setting [13]) was 57 nM.

FAVRPQVPL: the Kd is 6170 nM with HLA-B*53:01 [1] (setting [11]), 1300 nM in the assay with HLA-B*07:02 [10] (setting [11]) and 4250 nM with HLA-B*54:01 [9] (setting [11]). For the same sequence, the IC50 with HLA-B*51:01 [8] (setting [11]) came to 591 nM; with HLA-B*35:01 [5] (setting [11]), 148 nM.

For the sequence CPLERFAEL, the Kd with HLA-B*54:01 [9] (source organism: Homo sapiens) was 1000 nM. Moreover, the IC50 with HLA-B*53:01 [7] (source organism: Homo sapiens) was 198 nM; in the assay with HLA-B*07:02 [3] (source organism: Homo sapiens), 68 nM; with HLA-B*51:01 [8] (source organism: Homo sapiens) it was 6.2 nM; in the assay with HLA-B*35:01 [5] (source organism: Homo sapiens) it was 103 nM.

Consider IPEPEGPDA, for which the Kd with HLA-B*53:01 [1] (source organism: Homo sapiens) is not below 25000 nM; in the assay with HLA-B*07:02 [10] (source organism: Homo sapiens) it was not below 25000 nM; with HLA-B*51:01 [2] (source organism: Homo sapiens), 5500 nM; in the assay with HLA-B*54:01 [9] (source organism: Homo sapiens) it was not below 5000 nM; with HLA-B*35:01 [6] (source organism: Homo sapiens) it was not below 25000 nM.

On to SPATLLLVL, for which the Kd in the assay with HLA-B*54:01 [9] (source organism: Homo sapiens) turned out to be 12500 nM. For the same sequence, the IC50 was 23 nM with HLA-B*53:01 [7] (source organism: Homo sapiens), 10 nM with HLA-B*07:02 [3] (source organism: Homo sapiens), 162 nM with HLA-B*51:01 [8] (source organism: Homo sapiens) and 176 nM with HLA-B*35:01 [5] (source organism: Homo sapiens).

As for IPLYRNGDF, the Kd in the assay with HLA-B*53:01 [1] (source organism: Homo sapiens) is not below 25000 nM; with HLA-B*51:01 [2] (source organism: Homo sapiens) it was 5500 nM; in the assay with HLA-B*54:01 [9] (source organism: Homo sapiens), not below 25000 nM; with HLA-B*35:01 [6] (source organism: Homo sapiens), not below 25000 nM. For the same sequence, in the assay with HLA-B*07:02 [3] (source organism: Homo sapiens), the IC50 came to 60 nM.

Consider LPTTLFQPY, for which the Kd in the assay with HLA-B*53:01 [1] (setting [14]) was determined as 11600 nM; with HLA-B*35:01 [6] (setting [14]), 1560 nM. In addition, the IC50 in the assay with HLA-B*07:02 [3] (setting [14]) stood at 423 nM; in the assay with HLA-B*51:01 [8] (setting [14]) it was 42 nM; with HLA-B*54:01 [4] (setting [14]), 0.83 nM.

As for HPEDTGQVF, the Kd with HLA-B*51:01 [2] (source organism: Homo sapiens) is 1960 nM; with HLA-B*54:01 [9] (source organism: Homo sapiens) it was not below 25000 nM. Further, the IC50 in the assay with HLA-B*53:01 [7] (source organism: Homo sapiens) was 404 nM; with HLA-B*35:01 [5] (source organism: Homo sapiens), 206 nM.

Take WPLLPHVIF: in the assay with HLA-B*53:01 [1] (setting [15]), the Kd stood at 1010 nM. Besides, the IC50 in the assay with HLA-B*07:02 [3] (setting [15]) turned out to be 367 nM; with HLA-B*51:01 [8] (setting [15]) it was 262 nM; with HLA-B*54:01 [4] (setting [15]), 63 nM; with HLA-B*35:01 [5] (setting [15]), 180 nM.
